These results are taken from PMC6793942, “The Ps and Qs of alarmone synthesis in Staphylococcus aureus” (PLoS ONE, 2019).

One data set addresses T1, EF-RelQ (Enterococcus faecalis, UniProt Q830U9).
T1 construct: gene EF_2671
As to conditions: allosteric activator; ppGpp synthesis from 1 mM GDP + 1 mM ATP; 2 mM MgCl2; pH 9.0; 37°C. From the text: AMP formation by anion exchange chromatography, fold change of rate on EF-RelQ

A further data set addresses T2, Sm-RelP (Streptococcus mutans, UniProt Q8DUK1).
T2 construct: gene SMU_926
As to conditions: inhibitor; pGpp synthesis from 1 mM GMP + 1 mM ATP; 2 mM MgCl2; pH 9.0; 37°C. From the text:
AMP formation by anion exchange chromatography, fold change of rate on Sm-RelP

Another data set has as its target T3, Sm-RelQ (Streptococcus mutans, UniProt Q8DU97).
T3 construct: gene SMU_1046c
As to conditions: allosteric activator; pGpp synthesis from 1 mM GMP + 1 mM ATP; 2 mM MgCl2; pH 9.0; 37°C. From the text:
AMP formation by anion exchange chromatography, fold change of rate on Sm-RelQ

The test system of data set [1] is Nc1nc2c(ncn2[C@@H]2O[C@H](COP(=O)(O)O)[C@@H](OP(=O)(O)OP(=O)(O)O)[C@H]2O)c(=O)[nH]1. Nature of the data set: purified protein. As to conditions: hydrolysis (HD domain), 1 mM MnCl2, 10 mM MgCl2, pH 7.8, 25°C.
The subject of data set [2] is Nc1nc2c(ncn2[C@@H]2O[C@H](COP(=O)(O)OP(=O)(O)O)[C@@H](O)[C@H]2O)c(=O)[nH]1. Nature of the data set: purified protein. As to conditions: ppGpp synthesis (SYNTH domain), 8 mM ATP, 6 mM MgCl2, pH 7.8, 25°C.
Data set [3] has as its system Nc1nc2c(ncn2[C@@H]2O[C@H](COP(=O)(O)OP(=O)(O)OP(=O)(O)O)[C@@H](OP(=O)(O)OP(=O)(O)O)[C@H]2O)c(=O)[nH]1. As to the kind of experiment: purified protein. As to conditions: hydrolysis (HD domain), 1 mM MnCl2, 10 mM MgCl2, pH 7.8, 25°C.
The subject of data set [4] is Nc1nc2c(ncn2[C@@H]2O[C@H](COP(=O)(O)OP(=O)(O)O)[C@@H](OP(=O)(O)OP(=O)(O)O)[C@H]2O)c(=O)[nH]1. As to the kind of experiment: purified protein. As to conditions: hydrolysis (HD domain), 1 mM MnCl2, 10 mM MgCl2, pH 7.8, 25°C.
For data set [5], the system named is Nc1nc2c(ncn2[C@@H]2O[C@H](COP(=O)(O)OP(=O)(O)OP(=O)(O)O)[C@@H](O)[C@H]2O)c(=O)[nH]1. Nature of the data set: purified protein. As to conditions: pppGpp synthesis (SYNTH domain), 8 mM ATP, 6 mM MgCl2, pH 7.8, 25°C.
The subject of data set [6] is Nc1nc2c(ncn2[C@@H]2O[C@H](COP(=O)(O)OP(=O)(O)O)[C@@H](O)[C@H]2O)c(=O)[nH]1. Nature of the data set: product formation by anion exchange chromatography. It is filed as biochemical, Staphylococcus aureus. As to conditions: ppGpp synthesis, 2.5 mM ATP, 5 mM MgCl2, pH 9.0, no added alarmone. From the text: (§1) product formation by anion exchange chromatography on Sa-RelP

The test system of data set [7] is Nc1nc2c(ncn2[C@@H]2O[C@H](COP(=O)(O)O)[C@@H](O)[C@H]2O)c(=O)[nH]1. Nature of the data set: product formation by anion exchange chromatography. Type of data set: biochemical, Staphylococcus aureus. As to conditions: pGpp synthesis, 2.5 mM ATP, 5 mM MgCl2, pH 9.0, no added alarmone, 625 ± 165 in the source.
Text: as §1

For data set [8], the system named is Nc1nc2c(ncn2[C@@H]2O[C@H](COP(=O)(O)OP(=O)(O)OP(=O)(O)O)[C@@H](O)[C@H]2O)c(=O)[nH]1. Nature of the data set: product formation by anion exchange chromatography. It is filed as biochemical, Staphylococcus aureus. As to conditions: pppGpp synthesis, 2.5 mM ATP, 5 mM MgCl2, pH 9.0, no added alarmone.
Text: as §1

T2 sequence (Q8DUK1 entry or part of it): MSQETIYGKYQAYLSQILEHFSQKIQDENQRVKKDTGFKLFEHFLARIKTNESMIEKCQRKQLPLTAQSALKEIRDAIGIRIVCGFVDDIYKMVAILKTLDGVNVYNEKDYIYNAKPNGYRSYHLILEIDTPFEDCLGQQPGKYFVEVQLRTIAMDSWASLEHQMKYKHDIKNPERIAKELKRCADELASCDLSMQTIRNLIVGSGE
T1 sequence (Q830U9 entry or part of it): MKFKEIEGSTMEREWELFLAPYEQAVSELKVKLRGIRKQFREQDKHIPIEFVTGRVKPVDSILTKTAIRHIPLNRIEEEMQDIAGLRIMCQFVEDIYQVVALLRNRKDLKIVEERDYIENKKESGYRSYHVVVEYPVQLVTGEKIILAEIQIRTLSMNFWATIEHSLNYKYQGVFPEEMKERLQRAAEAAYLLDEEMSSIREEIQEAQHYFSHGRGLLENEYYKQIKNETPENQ
T3 sequence (Q8DU97 entry or part of it): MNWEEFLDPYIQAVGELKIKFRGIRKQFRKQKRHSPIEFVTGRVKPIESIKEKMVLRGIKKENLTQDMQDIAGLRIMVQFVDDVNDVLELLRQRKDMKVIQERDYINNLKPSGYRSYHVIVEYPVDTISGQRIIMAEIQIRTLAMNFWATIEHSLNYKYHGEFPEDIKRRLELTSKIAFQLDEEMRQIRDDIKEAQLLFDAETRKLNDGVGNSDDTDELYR

Consider `Nc1nc2c(ncn2[C@@H]2O[C@H](COP(=O)(O)OP(=O)(O)O)[C@@H](OP(=O)(O)OP(=O)(O)O)[C@H]2O)c(=O)[nH]1` [ppGpp, guanosine-3’,5’-bis(diphosphate)], for which, at EF-RelQ, the “+ 100 μM ppGpp / Fold-change” value is 7.8 ± 0.6 fold.

`Nc1nc2c(ncn2[C@@H]2O[C@H](COP(=O)(O)OP(=O)(O)OP(=O)(O)O)[C@@H](OP(=O)(O)OP(=O)(O)O)[C@H]2O)c(=O)[nH]1` [pppGpp, guanosine-5’-triphosphate 3’-diphosphate]: the entries for the “+ 100 μM pppGpp / Fold-change” value at Sm-RelP and on Sm-RelQ were 0.3 ± 0.1 fold and 572 ± 149 fold, respectively.

Consider “Sa-Rel (Staphylococcus aureus subsp. aureus MRSA252)”, for which the Km (commonly the substrate concentration at which the rate is half of its maximum) is 16.9 ± 2.1 µM in data set [1]; 434.9 ± 61.2 µM in data set [2]; 14.2 ± 1.3 µM in data set [3]; 21.7 ± 2.8 µM in data set [4]; 114.3 ± 15.7 µM in data set [5]. Also, the Vmax (in general, the top rate of the reaction or transport when substrate is in excess) in [1] is 4.08 µM/min; in [2], 1.08 µM/min; in [3], 4.68 µM/min; in data set [4] it was 3.6 µM/min; in [5], 3.84 µM/min. Moreover, the turnover number (kcat) (commonly the maximal rate divided by the concentration of active sites) in data set [1] was found to be 0.68 s⁻¹; in data set [2], 0.018 s⁻¹; in [3] it was 0.78 s⁻¹; in data set [4], 0.6 s⁻¹; in data set [5], 0.064 s⁻¹. Also, the kcat/Km (usually the second-order rate constant that governs catalysis at low substrate concentration) in data set [1] was determined as 40000 M⁻¹ s⁻¹; in [2], 41 M⁻¹ s⁻¹; in [3], 55200 M⁻¹ s⁻¹; in [4] it was 27500 M⁻¹ s⁻¹; in [5], 560 M⁻¹ s⁻¹.

“Sa-RelP (Staphylococcus aureus subsp. aureus NCTC 8325)”: in data set [6], the Michaelis constant (Km) was found to be 177 ± 52 µM, the maximal velocity (Vmax) amounted to 12 µM/min, the catalytic constant (kcat) was 0.78 ± 0.08 s⁻¹ and the kcat/Km was determined as 4430 ± 900 M⁻¹ s⁻¹. For the same compound, in data set [7], the Km turned out to be 625 ± 169 µM, the maximal velocity (Vmax) was 3.6 µM/min, the catalytic constant (kcat) was determined as 0.06 ± 0.01 s⁻¹ and the catalytic efficiency (kcat/Km) stood at 90 ± 20 M⁻¹ s⁻¹. In data set [8], the Km was 80 ± 21 µM, the Vmax worked out at 6 µM/min, the catalytic constant (kcat) is 0.38 ± 0.03 s⁻¹ and the kcat/Km stood at 4750 ± 1000 M⁻¹ s⁻¹.
